Drawing on publication PMC3544828, this text covers binding for two sequences.

The target in data set [1] is T1, CcpA (Staphylococcus aureus COL) (UniProt Q5HF38).
T1 sequence: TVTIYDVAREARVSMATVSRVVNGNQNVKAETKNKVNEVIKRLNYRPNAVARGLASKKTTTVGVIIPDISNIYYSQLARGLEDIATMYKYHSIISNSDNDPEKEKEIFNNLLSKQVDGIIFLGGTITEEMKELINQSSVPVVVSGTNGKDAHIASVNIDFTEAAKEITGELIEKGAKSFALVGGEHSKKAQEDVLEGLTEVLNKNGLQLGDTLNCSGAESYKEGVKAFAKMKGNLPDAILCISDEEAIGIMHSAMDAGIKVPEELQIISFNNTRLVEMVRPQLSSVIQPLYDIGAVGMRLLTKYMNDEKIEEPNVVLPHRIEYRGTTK
Kind of data set: EMSA. The following applies: Room temperature, 15 min, 250 fmol each of specific and non-specific probe; protein stock in 10 mM Tris-HCl pH 7.5, 100 mM NaCl, 10% glycerol (binding buffer …).

In data set [2] the target is T2, Rex (Staphylococcus aureus COL) (UniProt Q5HEF5).
T2 sequence: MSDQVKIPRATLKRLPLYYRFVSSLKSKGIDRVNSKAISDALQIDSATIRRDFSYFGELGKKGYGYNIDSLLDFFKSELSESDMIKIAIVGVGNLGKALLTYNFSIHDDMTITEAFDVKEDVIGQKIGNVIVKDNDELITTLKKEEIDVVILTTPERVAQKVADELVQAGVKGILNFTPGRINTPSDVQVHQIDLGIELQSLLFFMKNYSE
Kind of data set: EMSA. The settings on record: Room temperature, 15 min, 250 fmol each of specific and non-specific probe; protein stock in 10 mM Tris-HCl pH 7.5, 100 mM NaCl, 10% glycerol (binding buffer …).

In the case of “CGCATAACTTAAAAGGTCATGTGTCATCCGCTTTTAAGTTTGTGATTTATTTCACATATAAAATGTAACATGCATTAAGTACTGGGTCAATATTAAATTGTGATTTATTTCACATTTTATTTTAATTTTTACACCTTTTTAATTTGTATACGATTACATCTTAGATGTCTTTAGTCTTCGTACTTCGCCAGTGATTATTTACAC (double strand) [Pldh1 promoter fragment]”, the binding result in data set [1] was “no binding”; in data set [2] it was “binds”.
Consider “CTCCCCTTTTCATCATTTATAACTATTATACATGAAACATTATCCAAATAATTACATTAGTTTTCAAAGCAGATACTTTTCCACCAAAAAAGATGAAATAATCACTAAGTTTCATTAAATTTGTCTATTTTGAAAACCCTTACATTTATAATGACATAATTACTTAAATGATTACAAGCAAAAGAATTGATAATTTTACACTTAATC (double strand) [ProcD2 promoter fragment]”, for which the binding entry in data set [1] was “binds”.
